Experimental findings from patent publication US20190338048A1 are described below.

The target of assay [1] is SGN-CD19a kappa light chain L2, design 2827 (Q124K_T178R). Description: SMCA, System C, LC-MS.
Assay [2] has the same target. Description: SMCA, System B.
Assay [3] shares this target. Description: SMCA, System C.
Assay [4] shares this target. Briefly: SMCA, System B, LC-MS.
Assay [5] concerns the target SGN-CD19a kappa light chain (L2) with Q124K_T178R, design 2827. Briefly: SMCA LC-MS, System B.
Assay [6] has the same target. Description: SMCA LC-MS, System C.
Assay [7] has as its target CR8071 lambda light chain (L1) with S180E, designs 2816 and 2827. Description: SMCA: H1, L1, H2, L2 co-expressed in CHO-3E7.
Assay [8] has the same target. Briefly: SMCA LC-MS, System C.
Assay [9] has as its target SGN-CD19a kappa light chain (L2) with T178E_T180E, design 2830. Briefly: SMCA LC-MS, System B.
Assay [10] has the same target. Description: SMCA: co-expression.
For assay [11], the target named is CR8071 lambda light chain (L1) with E124R, design 2826. Briefly: SMCA: co-expression.
Assay [12] shares this target. Briefly: SMCA LC-MS, System C.
For assay [13], the target named is SGN-CD19a kappa light chain (L2) with Q124R_Q160K_T178R, design 2816. Briefly: SMCA: co-expression.
The target is the same in assay [14]. Description: SMCA LC-MS, System C.
Assay [15] has as its target SGN-CD19a kappa light chain (L2) with V133G_S176D, design 2188, Systems B and C.
The target is the same in assay [16]. Description: SMCA, LC-MS.
Assay [17] addresses CR8071 lambda light chain (L1) with E124K_Y178R, design 2830, System C.
The target is the same in assay [18]. Briefly: SMCA, LC-MS.
Assay [19] deals with SGN-CD19a kappa light chain L2, design 2816 (Q124R_Q160K_T178R). Briefly: SMCA, System C, LC-MS.
The target is the same in assay [20]. Briefly: SMCA, System B.
For assay [21] the target is unchanged. Description: SMCA, System C.
Assay [22] shares this target. Description: SMCA, System B, LC-MS.
Assay [23] concerns the target CR8071 lambda light chain (L1) with S180E, designs 2816 and 2827. Briefly: SMCA: co-expression.
Assay [24] addresses CR8071 lambda light chain (L1) with V133G_S176R, design 2188, System C.
Assay [25] has the same target. Briefly: SMCA, LC-MS.
In assay [26] the target is SGN-CD19a kappa light chain L2, design 2830 (T178E_T180E). Briefly: SMCA, System B.
Assay [27] shares this target. Description: SMCA, System B, LC-MS.
Assay [28] deals with SGN-CD19a kappa light chain (L2) with Q124E_Q160E_T180E, design 2826. Description: SMCA LC-MS, System B.
The target is the same in assay [29]. Description: SMCA: co-expression.
For assay [30] the target is unchanged. Description: SMCA LC-MS, System C.
For assay [31], the target named is SGN-CD19a kappa light chain (L2) with T178E_T180E, design 2830, System C.
Assay [32] has the same target. Briefly: SMCA, LC-MS.

Where “and” joins values, the source holds several entries; their conditions need not be identical. Identical values can stand only once.

“SGN-CD19a heavy chain H2, design 2827 (L143E_K145T_Q179E)”: the results for the Change in % H2L2 Pairing with respect to wild type in assay [1] and in [4] were 25.1% and -15.3%, respectively. Moreover, the values for the % H2L2 Pairing in [2] and in assay [3] were 22.3% and 85%, respectively.

Regarding “SGN-CD19a heavy chain (H2, kappa arm) with L143E_K145T_Q179E, design 2827, full-length IgG1 with heterodimeric Fc”, the Change in % H2L2 Pairing with respect to wild type is -15.3% in [5] and 25.1% in [6].

The substance “CR8071 heavy chain (H1, lambda arm) with Q179K, design 2816, full-length IgG1 with heterodimeric Fc” had a % H1L1 Pairing in [7] of 99.3%. Besides, in [8], the Change in % H1L1 Pairing with respect to wild type came out at 17%.

For the substance “SGN-CD19a heavy chain (H2, kappa arm) with S186R, design 2830, full-length IgG1 with heterodimeric Fc”, the Change in % H2L2 Pairing with respect to wild type in [9] came out at 44.3%. The same substance returned a % H2L2 Pairing in assay [10] of 98.5%.

In [11], “CR8071 heavy chain (H1, lambda arm) with L143E_K145T, design 2826, full-length IgG1 with heterodimeric Fc” returned a % H1L1 Pairing of 27.8%. Besides, the Change in % H1L1 Pairing with respect to wild type in assay [12] is -40.3%.

As to “SGN-CD19a heavy chain (H2, kappa arm) with L143E_K145T, design 2816, full-length IgG1 with heterodimeric Fc”, the % H2L2 Pairing in assay [13] came to 79.7%. Besides, in [14], the Change in % H2L2 Pairing with respect to wild type came to 19.8%.

For the substance “SGN-CD19a full-length IgG1 heavy chain (H2) with L124R, design 2188, Systems B and C”, the % H2L2 Pairing in [15] was 92.9% and 99.5%. In addition, the Change in % H2L2 Pairing with respect to wild type in [16] is 38.7% and 19.9%.

As to “CR8071 full-length IgG1 heavy chain (H1) with L143E_K145T_Q179E, design 2830, System C”, the % H1L1 Pairing in assay [17] was 28%. Besides, the Change in % H1L1 Pairing with respect to wild type in [18] is -20.4%.

As to “SGN-CD19a heavy chain H2, design 2816 (L143E_K145T)”, the Change in % H2L2 Pairing with respect to wild type in assay [19] is 19.8%; in assay [22], -12.5%. The % H2L2 Pairing in [20] came out at 25.1%; in [21], 79.7%.

Consider “CR8071 heavy chain (H1, lambda arm) with S186R, design 2827, full-length IgG1 with heterodimeric Fc”, for which, in assay [23], the % H1L1 Pairing amounted to 98.2%. The Change in % H1L1 Pairing with respect to wild type in [8] was 15.9%.

In turn, “CR8071 full-length IgG1 heavy chain (H1) with L124E, design 2188, System C” registered a % H1L1 Pairing in assay [24] of 24.9%. Moreover, the Change in % H1L1 Pairing with respect to wild type in [25] is -23.5%.

For “SGN-CD19a heavy chain H2, design 2830 (S186R)”, the % H2L2 Pairing in assay [26] worked out at 98.5%. For the same substance, the Change in % H2L2 Pairing with respect to wild type in assay [27] is 44.3%.

For the substance “SGN-CD19a heavy chain (H2, kappa arm) with Q179K, design 2826, full-length IgG1 with heterodimeric Fc”, the Change in % H2L2 Pairing with respect to wild type in assay [28] is 35.5%; in [30] it was 26.7%. For the same substance, the % H2L2 Pairing in [29] was 89.7% and 98%.

In turn, “SGN-CD19a full-length IgG1 heavy chain (H2) with S186R, design 2830, System C” had a % H2L2 Pairing in assay [31] of 99.6%. In addition, in [32], the Change in % H2L2 Pairing with respect to wild type worked out at 20%.
